What was measured:
[1] = biological target: human CEACAM6, full-length, on cells (human) (UniProt P40199); assay: FACS, 5 µg/ml, KS cells
[2] = biological target: human CEACAM6, full-length, on cells (human) (UniProt P40199); assay: FACS, 5 µg/ml, A549 cells
[3] = biological target: human CEACAM6, full-length, on cells (human) (UniProt P40199); assay: FACS, 5 µg/ml, HPAC cells
[4] = biological target: human CEACAM6, full-length, on cells (human) (UniProt P40199); assay: FACS, 5 µg/ml, HT29 cells
[5] = biological target: human CEACAM6, full-length, on cells (human) (UniProt P40199); assay: FACS, 5 µg/ml, HT55 cells
[6] = biological target: human CEACAM6, full-length, on cells (human) (UniProt P40199); assay: FACS, 5 µg/ml, LoVo cells
[7] = biological target: human CEACAM6, full-length, on cells (human) (UniProt P40199); assay: FACS, 5 µg/ml, MCF7 cells
[8] = biological target: human CEACAM6, full-length, on cells (human) (UniProt P40199); assay: FACS, 5 µg/ml, WiDr cells
[9] = biological target: human CEACAM6, full-length, on cells (human) (UniProt P40199); assay: FACS, 5 µg/ml, BxPc3 cells
[10] = biological target: human CEACAM6, full-length, on cells (human) (UniProt P40199); assay: FACS, 5 µg/ml, CL-34 cells
[11] = biological target: human CEACAM6, full-length, on cells (human) (UniProt P40199); assay: FACS, 5 µg/ml, DAN-G cells
[12] = biological target: human CEACAM6, full-length, on cells (human) (UniProt P40199); assay: FACS, 5 µg/ml, KM-12 cells
[13] = biological target: human CEACAM6, full-length, on cells (human) (UniProt P40199); assay: FACS, 5 µg/ml, SNU-1 cells
[14] = biological target: human CEACAM6, full-length, on cells (human) (UniProt P40199); assay: FACS, 5 µg/ml, T-47D cells
[15] = biological target: human CEACAM6, full-length, on cells (human) (UniProt P40199); assay: FACS, 5 µg/ml, AsPC-1 cells
[16] = biological target: human CEACAM6, full-length, on cells (human) (UniProt P40199); assay: FACS, 5 µg/ml, BT-474 cells
[17] = biological target: human CEACAM6, full-length, on cells (human) (UniProt P40199); assay: FACS, 5 µg/ml, Calu-3 cells
[18] = biological target: human CEACAM6, full-length, on cells (human) (UniProt P40199); assay: FACS, 5 µg/ml, HCC827 cells
[19] = biological target: human CEACAM6, full-length, on cells (human) (UniProt P40199); assay: FACS, 5 µg/ml, HPAFII cells
[20] = biological target: human CEACAM6, full-length, on cells (human) (UniProt P40199); assay: FACS, 5 µg/ml, SNU-C1 cells
[21] = biological target: human CEACAM6, full-length, on cells (human) (UniProt P40199); assay: FACS, 5 µg/ml, SW1116 cells
[22] = biological target: human CEACAM6, full-length, on cells (human) (UniProt P40199); assay: FACS, transfected HeLa cells
[23] = biological target: human CEACAM6, full-length, on cells (human) (UniProt P40199); assay: FACS, 5 µg/ml, HCC2998 cells
[24] = biological target: human CEACAM6, full-length, on cells (human) (UniProt P40199); assay: FACS, 5 µg/ml, ZR-75-1 cells
[25] = biological target: human CEACAM6, full-length, on cells (human) (UniProt P40199); assay: FACS, 5 µg/ml, HCC-2935 cells
[26] = biological target: human CEACAM6, full-length, on cells (human) (UniProt P40199); assay: FACS, 5 µg/ml, NCI-H441 cells
[27] = biological target: human CEACAM6, full-length, on cells (human) (UniProt P40199); assay: FACS, 5 µg/ml, NCI-H1437 cells
[28] = biological target: human CEACAM6, full-length, on cells (human) (UniProt P40199); assay: FACS, 5 µg/ml, NCI-H1688 cells
[29] = biological target: human CEACAM6, full-length, on cells (human) (UniProt P40199); assay: FACS, 5 µg/ml, NCI-H1993 cells
[30] = biological target: human CEACAM6, full-length, on cells (human) (UniProt P40199); assay: FACS, 5 µg/ml, NCI-H2228 cells
[31] = biological target: human CEACAM6, full-length, on cells (human) (UniProt P40199); assay: FACS, 5 µg/ml, RPMI-8226 cells
[32] = biological target: human CEACAM6, full-length, on cells (human) (UniProt P40199); assay: FACS, 5 µg/ml, MCF7/AdrVp cells
[33] = biological target: human CEACAM6, full-length, on cells (human) (UniProt P40199); assay: FACS, 5 µg/ml, MDA-MB-361 cells
[34] = biological target: human CEACAM6, extracellular (mature form), R&D Systems 3934-CM (human) (UniProt P40199); assay: SPR, antibody captured, antigen as analyte
Chain of human CEACAM6, extracellular (mature form), R&D Systems 3934-CM (human) (P40199 other isoform, or with tags, fused parts or gaps limits assumed): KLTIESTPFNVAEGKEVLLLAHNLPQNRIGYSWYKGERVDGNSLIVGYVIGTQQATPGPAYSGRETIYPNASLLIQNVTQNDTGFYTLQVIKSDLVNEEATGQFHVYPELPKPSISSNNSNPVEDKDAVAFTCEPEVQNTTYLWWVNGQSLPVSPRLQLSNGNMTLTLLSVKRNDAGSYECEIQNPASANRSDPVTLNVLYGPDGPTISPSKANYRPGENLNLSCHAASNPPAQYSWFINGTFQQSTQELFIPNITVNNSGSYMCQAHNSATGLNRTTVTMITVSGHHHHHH

Chain of human CEACAM6, full-length, on cells (human) (P40199 35-320 V239G): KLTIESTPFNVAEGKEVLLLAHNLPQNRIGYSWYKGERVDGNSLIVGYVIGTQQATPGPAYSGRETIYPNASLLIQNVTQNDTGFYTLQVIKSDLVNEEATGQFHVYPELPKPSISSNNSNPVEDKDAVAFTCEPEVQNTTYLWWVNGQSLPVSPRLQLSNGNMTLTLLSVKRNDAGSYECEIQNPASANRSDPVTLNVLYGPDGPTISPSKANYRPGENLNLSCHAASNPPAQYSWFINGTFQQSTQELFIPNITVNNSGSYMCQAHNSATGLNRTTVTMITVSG

Substance: 9A6 (mouse IgG1) (antibody)
- FACS median fluorescence (medianfluorescence) [1]: 1000 to 10000
- FACS median fluorescence (medianfluorescence) [2]: 1000 to 10000
- FACS median fluorescence (medianfluorescence) [3]: > 10000
- FACS median fluorescence (medianfluorescence) [4]: 100 to 1000
- FACS median fluorescence (medianfluorescence) [5]: 1000 to 10000
- FACS median fluorescence (medianfluorescence) [6]: 100 to 1000
- FACS median fluorescence (medianfluorescence) [7]: 10 to 100
- FACS median fluorescence (medianfluorescence) [8]: 100 to 1000
- FACS median fluorescence (medianfluorescence) [9]: 1000 to 10000
- FACS median fluorescence (medianfluorescence) [10]: 10 to 100
- FACS median fluorescence (medianfluorescence) [11]: 10 to 100
- FACS median fluorescence (medianfluorescence) [12]: 100 to 1000
- FACS median fluorescence (medianfluorescence) [13]: 1000 to 10000
- FACS median fluorescence (medianfluorescence) [14]: 10 to 100
- FACS median fluorescence (medianfluorescence) [15]: 1000 to 10000
- FACS median fluorescence (medianfluorescence) [16]: 1000 to 10000
- FACS median fluorescence (medianfluorescence) [17]: 10 to 100
- FACS median fluorescence (medianfluorescence) [18]: 100 to 1000
- FACS median fluorescence (medianfluorescence) [19]: 1000 to 10000
- FACS median fluorescence (medianfluorescence) [20]: 100 to 1000
- FACS median fluorescence (medianfluorescence) [21]: 1000 to 10000
- FACS median fluorescence (medianfluorescence) [22]: 1000 to 10000
- FACS median fluorescence (medianfluorescence) [23]: 100 to 1000
- FACS median fluorescence (medianfluorescence) [24]: 100 to 1000
- FACS median fluorescence (medianfluorescence) [25]: > 10000
- FACS median fluorescence (medianfluorescence) [26]: 100 to 1000
- FACS median fluorescence (medianfluorescence) [27]: 1000 to 10000
- FACS median fluorescence (medianfluorescence) [28]: 10 to 100
- FACS median fluorescence (medianfluorescence) [29]: 1000 to 10000
- FACS median fluorescence (medianfluorescence) [30]: 100 to 1000
- FACS median fluorescence (medianfluorescence) [31]: 10 to 100
- FACS median fluorescence (medianfluorescence) [32]: 10 to 100
- FACS median fluorescence (medianfluorescence) [33]: 1000 to 10000
- Kd [34]: 22 nM

Source: patent publication US20200181261A1
